Measured values from article PMC4357725 (Nucleic Acids Research, 2015).

Target: T1, ϕ29 DNA polymerase, wild type (bacteriophage ϕ29, UniProt P03680 1-575)
T1 construct: DNA polymerase of bacteriophage ϕ29, wild type; 66 kDa; also called viral DNA polymerase
T1 sequence (looked up): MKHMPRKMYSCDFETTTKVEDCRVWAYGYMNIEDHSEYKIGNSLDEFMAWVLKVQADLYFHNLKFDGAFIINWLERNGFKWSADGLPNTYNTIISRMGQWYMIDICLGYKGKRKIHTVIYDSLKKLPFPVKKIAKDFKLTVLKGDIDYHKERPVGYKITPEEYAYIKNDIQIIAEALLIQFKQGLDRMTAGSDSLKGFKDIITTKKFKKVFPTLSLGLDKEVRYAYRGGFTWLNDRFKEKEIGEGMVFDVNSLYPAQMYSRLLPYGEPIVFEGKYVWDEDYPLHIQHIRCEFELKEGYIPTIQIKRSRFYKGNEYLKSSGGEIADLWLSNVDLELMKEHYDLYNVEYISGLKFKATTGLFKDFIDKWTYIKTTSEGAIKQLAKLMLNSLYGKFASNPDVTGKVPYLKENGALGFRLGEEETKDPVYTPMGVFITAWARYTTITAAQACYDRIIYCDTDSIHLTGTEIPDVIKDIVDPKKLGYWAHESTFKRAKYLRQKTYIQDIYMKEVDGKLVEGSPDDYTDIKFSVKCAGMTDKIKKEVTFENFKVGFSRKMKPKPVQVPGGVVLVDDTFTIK
Experiment: co-sedimentation; glycerol gradient sedimentation of DNA polymerase with TP N-terminal mutants (Supplementary Figure S2)
Details: both partners purified

B1: ϕ29 TP mutant K32A/K33A/K34A (natural protein, bacteriophage ϕ29, UniProt P03681 1-266, looked up)
chain: MARSPRIRIKDNDKAEYARLVKNTKAKIARTAAAYGVDLTAEIDIPDLDSFETRAQFNKWKEQASSFTNRANMRYQFEKNAYGVVASKAKIAEIERNTKEVQRLVDEKIKAMKDKEYYAGGKPQGTIEQRIAMTSPAHVTGINRPHDFDFSKVRSYSRLRTLEESMEMRTDPQYYEKKMIQLQLNFIKSVEGSFNSFDAADELIEELKKIPPDDFYELFLRISEISFEEFDSEGNTVENVEGNVYKILSYLEQYRRGDFDLSLKGF
notes: terminal protein (TP) of bacteriophage ϕ29 with K32A, K33A and K34A
B1: binds.
